Reference: patent US20210253716A1

What was measured:
[1] = molecular target: human ACVR1 extracellular domain expressed with a C-terminal mouse IgG2a Fc tag (human); test: SPR (Biacore), mAb captured, 37 C
[2] = molecular target: human ACVR1 extracellular domain expressed with a C-terminal mouse IgG2a Fc tag (human); test: SPR (Biacore), mAb captured, 25 C
[3] = molecular target: mouse ACVR1 extracellular domain expressed with a C-terminal myc-myc-hexahistidine tag (mouse); test: SPR (Biacore), mAb captured, 37 C
mouse ACVR1 extracellular domain expressed with a C-terminal myc-myc-hexahistidine tag (mouse), sequence (chain, as listed by the source limits assumed): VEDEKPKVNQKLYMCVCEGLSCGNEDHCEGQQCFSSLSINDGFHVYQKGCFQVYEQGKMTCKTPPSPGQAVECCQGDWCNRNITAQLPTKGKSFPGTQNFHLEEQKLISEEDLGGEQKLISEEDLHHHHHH

[4] = molecular target: mouse ACVR1 extracellular domain expressed with a C-terminal myc-myc-hexahistidine tag (mouse); test: SPR (Biacore), mAb captured, 25 C

human ACVR1 extracellular domain expressed with a C-terminal mouse IgG2a Fc tag (human), sequence (chain, as listed by the source limits assumed): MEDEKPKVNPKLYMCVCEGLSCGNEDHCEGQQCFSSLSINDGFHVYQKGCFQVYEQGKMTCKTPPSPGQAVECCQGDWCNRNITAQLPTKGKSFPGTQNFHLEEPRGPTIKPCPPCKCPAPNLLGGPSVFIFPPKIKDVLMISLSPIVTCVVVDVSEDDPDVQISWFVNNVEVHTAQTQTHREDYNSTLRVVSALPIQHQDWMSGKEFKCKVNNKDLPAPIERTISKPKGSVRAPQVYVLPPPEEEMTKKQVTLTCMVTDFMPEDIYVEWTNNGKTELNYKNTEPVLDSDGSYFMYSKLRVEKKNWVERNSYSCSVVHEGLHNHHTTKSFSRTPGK

100 nM Ag Bound (RU) [1]	100 nM Ag Bound (RU) [2]	900 nM or 100 nM Ag Bound (RU) [3]	900 nM or 100 nM Ag Bound (RU) [4]	Binder
11 RU	0 RU			mAb29261 (antibody, human IgG4 S228P, kappa, V domains shown) VH: EVQLVESGGNLVQPGGSLRLSCAASGFTFSNYAMSWVRQAPGKGLEWVSGITGNGINTYYSVSVKGRFTISRDNSKNTVFLQMNSLRAEDTAIYYCVKERGHSWFGDWFDPWGQGTLVTVSS VL: DIQMTQSPSSLSASVGDRVTITCRASQGIRNDLGWYQQKPGKAPKRLIYAASSLQSGVPSRFSGSGSGTEFTLTISSLQPEDFATYYCLQHNSYPWTFGQGTKVEIKR
		5 RU	5 RU	mAb29266 (antibody, human IgG4 S228P, kappa, V domains shown) VH: QVQLVESGGGVVQPGRSLRLSCEVSGFTFSNYGMHWVRQAPGKGLEWVAVVSYDGSNKYYTDSVKGRFTISRDNSKNTLSLQMNSLRAEDTAVYYCAKDRGITGTSGGVFDIWGQGTMVTVSS VL: AIRMTQSPSSFSATTGDRVTITCRASQGISSHLAWYQQKPGKAPKFLIYVASTLQSGVPSRFSGSGSGTDFTLTISSLQSEDFATYYCQQYYSYPPTFGQGTKVEIKR
